Measured values taken from patent publication US8722052B2, “Vaccinia virus protein A46 peptide and use thereof” (priority 2008, dated 2014).

Target: T1, TLR8 (Homo sapiens, UniProt Q9NR97)
T1 construct: expressed in transfected cells
T1 sequence (Q9NR97 27-1041): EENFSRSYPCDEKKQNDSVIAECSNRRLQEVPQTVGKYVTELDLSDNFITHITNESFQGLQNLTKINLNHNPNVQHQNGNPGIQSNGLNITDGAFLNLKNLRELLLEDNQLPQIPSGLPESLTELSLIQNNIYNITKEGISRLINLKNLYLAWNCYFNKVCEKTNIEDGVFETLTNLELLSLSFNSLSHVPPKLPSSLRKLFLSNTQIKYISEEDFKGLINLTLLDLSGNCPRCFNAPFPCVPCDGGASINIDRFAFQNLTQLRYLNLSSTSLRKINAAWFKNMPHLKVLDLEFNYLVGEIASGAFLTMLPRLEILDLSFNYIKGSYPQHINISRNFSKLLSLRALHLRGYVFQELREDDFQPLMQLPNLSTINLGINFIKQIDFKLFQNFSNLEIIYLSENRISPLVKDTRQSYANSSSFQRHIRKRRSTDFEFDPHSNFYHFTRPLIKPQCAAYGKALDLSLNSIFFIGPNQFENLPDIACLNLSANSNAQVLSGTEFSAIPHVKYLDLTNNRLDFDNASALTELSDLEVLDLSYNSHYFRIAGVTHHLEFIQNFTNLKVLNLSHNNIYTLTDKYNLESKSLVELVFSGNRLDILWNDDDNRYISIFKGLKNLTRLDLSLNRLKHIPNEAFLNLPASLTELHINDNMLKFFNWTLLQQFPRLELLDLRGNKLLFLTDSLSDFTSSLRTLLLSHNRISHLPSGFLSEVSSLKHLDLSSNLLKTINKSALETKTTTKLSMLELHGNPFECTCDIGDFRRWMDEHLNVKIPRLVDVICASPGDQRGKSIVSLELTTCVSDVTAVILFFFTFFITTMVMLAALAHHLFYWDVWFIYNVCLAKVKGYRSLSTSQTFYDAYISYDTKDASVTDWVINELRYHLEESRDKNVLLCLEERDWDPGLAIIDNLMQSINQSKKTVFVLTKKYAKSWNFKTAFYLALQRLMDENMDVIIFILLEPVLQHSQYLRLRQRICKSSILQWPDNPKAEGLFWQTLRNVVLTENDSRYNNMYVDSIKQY
Test: CL075-induced NFκB reporter assay in HEK293_TLR8 cells
Type: cell-based
Details: peptide 1, 5 or 25 μM, 2.5 μg/ml CL075, 6 h
Procedure: FIG. 12 is a bar chart showing the effect of A467 and A464 on TLR8-induced NFκB activation in HEK293 cells. HEK293_TLR8 cells were transfected with 60 ng NFκB-Luciferase and 20 ng of TK-Renilla reporter genes, as in FIG. 11. A467 (SEQ ID NO. 23) and A464 (SEQ ID NO. 20) were added to the cells at a concentration of 1, 5 or 25 μM the next day and cells were stimulated with 2.5 μg/ml CL075 1 hour after treatment with the peptide. Cells were harvested and assayed for NFκB activation by reporter gene assay 6 hr after stimulation with the agonist. No peptides were added to the control wells (black bars). Data is representative of at least three experiments each performed in triplicate. Data are expressed as mean fold induction±s.d. relative to control levels;
HEK293 cells were transfected using GeneJuice® a proprietary non-toxic transfection reagent. 200 μl/well cells at a density of 1×10^5 cells/ml were seeded the day before transfection. 0.8 μl of GeneJuice was mixed with 9.2 μl of serum-free DMEM (SFM) per transfection and incubated for 5 min at room temperature before adding the appropriate amount of the plasmid DNA. The GeneJuice/SFM/DNA mixture was then incubated at room temperature for 15 min before adding to the cells. […] Luciferase activity was analysed using a luminometer. […]

KYSFKLILAEYRRRRRRRRR [Peptide A464]
inhibition of TLR8-dependent NFκB activation: neither A467 (SEQ ID No. 23) nor A464 (SEQ ID No. 20) had any inhibitory effect
